Data on 8 molecules can be found in patent US20230088269A1 (ARGENX BVBA, published 2023).

What is called koff is a measure of how fast the partners let go of each other. As usually defined, the Kd is the free concentration of one partner at which half of the binding sites on the other are occupied at equilibrium, for simple one-to-one binding. For orientation: kon means a measure of how fast the partners come together.

The target of assay [1] is T1, recombinant human IL-22R (R&D Systems / Biotechne 2770-LR) (human, UniProt Q8N6P7 16-228).
T1 construct: Bought soluble recombinant protein (said to be 25 kDa); also called hIL22R; IL-22R1
T1 sequence: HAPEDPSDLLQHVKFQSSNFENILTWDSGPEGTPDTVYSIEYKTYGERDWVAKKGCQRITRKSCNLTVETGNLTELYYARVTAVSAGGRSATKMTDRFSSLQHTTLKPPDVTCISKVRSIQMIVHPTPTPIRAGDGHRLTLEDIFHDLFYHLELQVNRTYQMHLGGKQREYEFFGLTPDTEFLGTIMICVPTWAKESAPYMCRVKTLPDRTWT
Put plainly: off-rate of Fab fragment; method not stated.

Assay [2] has as its target T2, rhIL22R-Fc (rhesus IL22R ECD fused to human Fc) (rhesus monkey, UniProt G7MHN4 16-228).
T2 construct: also called rhesus IL-22R1
T2 sequence: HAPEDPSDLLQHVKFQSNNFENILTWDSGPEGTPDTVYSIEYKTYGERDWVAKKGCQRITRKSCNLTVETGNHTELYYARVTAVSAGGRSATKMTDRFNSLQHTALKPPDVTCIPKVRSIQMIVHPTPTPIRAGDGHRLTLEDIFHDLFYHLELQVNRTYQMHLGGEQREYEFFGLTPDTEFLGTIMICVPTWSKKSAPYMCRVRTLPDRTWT
Put plainly: off-rate of Fab fragment; method not stated.

Assay [3] addresses T1, recombinant human IL-22R (R&D Systems / …). Put plainly: SPR (Biacore 3000), IL22R on CM5 chip, IgG1 injected. How it is done:
In addition to the potency on cells, the in vitro binding kinetics and blocking activity of the purified antibodies were measured in Biacore (3000). […] Antibodies tested at a range of concentrations and prepared in HBSEP buffer at pH 7.4 (Biacore) were injected at 30 μl/min for 60 second and washed with HBSEP buffer at pH 7.4 (Biacore) for 10-20 min. The obtained sensograms were analyzed with the BIAevaluation software and kinetics were determined using standard fitting (Langmuir 1:1 with mass transfer).

Assay [4] concerns the target T3, recombinant mouse IL22R (monomeric, R&D Systems cat 4248-MR) (mouse, UniProt Q80XZ4 16-230).
T3 construct: extracellular domain; also called murine IL-22R; mIL22R
T3 sequence (looked up): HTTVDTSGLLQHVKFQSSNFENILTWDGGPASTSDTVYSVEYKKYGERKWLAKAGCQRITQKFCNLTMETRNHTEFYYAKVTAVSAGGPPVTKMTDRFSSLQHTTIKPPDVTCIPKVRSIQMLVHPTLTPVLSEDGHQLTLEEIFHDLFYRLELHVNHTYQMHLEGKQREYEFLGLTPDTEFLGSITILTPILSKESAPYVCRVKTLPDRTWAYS
Put plainly: ELISA and SPR (Biacore), mAb. How it is done:
After production and purification of the cyIL22R-Fc and the rhIL22R-Fc, the binding specificity to cynomolgus, rhesus and mouse IL22R ECD of all the antibodies from primary selection was tested in ELISA and by SPR (Biacore). Monomeric mouse IL22R was purchased from R&D Systems (cat 4248-MR).
For orientation: In an ELISA, binding on a coated surface is turned into a signal by an enzyme label.

For assay [5], the target named is T1, recombinant human IL-22R (R&D Systems / …). The assay can be described thus: SPR (Biacore), hIL22R on CM5 chip, mAb injected, 1:1 Langmuir. How it is done: The affinity of the 230C9 and 223G5 antibodies was measured using SPR ([…]). In brief, 250RU of human IL22R (Biotechne, 2770-LR) was coated onto a CM5 chip using standard methods (EDC coupling of IL22R at a concentration of 2 μg/ml in acetate buffer pH4.5). Then various concentrations of antibody were injected in HBSEP+ buffer (pH 7.4) for 2 minutes. The binding was monitored also during a 10 min washing (HBSEP+).
On the technique in general: SPR reads the build-up and loss of mass on a sensor chip optically.

Assay [6] has as its target T4, human IL-22R expressed on cells (BW-hIL22R, Baf3-hIL22R/IL20Rb, transfected HEK, primary human skin cells) (human, UniProt Q8N6P7 16-574).
T4 sequence: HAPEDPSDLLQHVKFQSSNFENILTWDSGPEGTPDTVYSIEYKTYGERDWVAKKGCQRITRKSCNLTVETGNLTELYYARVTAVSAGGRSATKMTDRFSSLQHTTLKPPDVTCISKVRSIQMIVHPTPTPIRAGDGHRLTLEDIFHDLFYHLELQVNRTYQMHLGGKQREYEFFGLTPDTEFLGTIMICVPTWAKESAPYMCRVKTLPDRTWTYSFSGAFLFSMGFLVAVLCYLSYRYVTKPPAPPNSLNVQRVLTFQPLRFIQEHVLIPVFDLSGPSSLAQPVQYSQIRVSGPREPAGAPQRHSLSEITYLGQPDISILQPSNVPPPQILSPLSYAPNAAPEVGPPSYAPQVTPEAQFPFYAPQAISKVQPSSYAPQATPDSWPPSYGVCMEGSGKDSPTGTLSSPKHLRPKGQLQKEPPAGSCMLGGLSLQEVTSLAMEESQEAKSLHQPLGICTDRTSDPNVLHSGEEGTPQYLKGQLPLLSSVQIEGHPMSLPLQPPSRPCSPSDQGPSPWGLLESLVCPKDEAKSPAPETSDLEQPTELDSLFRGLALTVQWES
The assay can be described thus: cell-based or functional assay.

For assay [7], the target named is T4, human IL-22R expressed on cells …. The assay can be described thus: cell-based or functional assay. The source holds these as a separate data set.
Assay [8] has as its target rhesus IL22R ECD - human TM - human ICD chimera on transfected HEK cells (rhesus monkey; human, UniProt Q8N6P7 229-574). Put plainly: cell-based or functional assay.
In assay [9] the target is T4, human IL-22R expressed on cells …. Put plainly: cell-based or functional assay. This is another data set of the same source.
Assay [10] addresses cynoIL22R_ECD-humanTM_humanICD chimera on transfected cells (cynomolgus monkey; human, UniProt Q8N6P7 229-574). The assay can be described thus: cell-based or functional assay.
The target of assay [11] is T1, recombinant human IL-22R (R&D Systems / …). The assay can be described thus: SPR (Biacore), purified Fab.
Assay [12] has as its target T3, recombinant mouse IL22R (monomeric, R&D …). Put plainly: SPR (Biacore), purified Fab.

B1: 223G5 Fab (Fab, V domains shown)
VH: QVQLVESGGGLVQPGGSLRLSCAASGFTFSSYFMSWVRQAPGKGPEWVSGIHISGGITYYTDSVKGRFTISRDNAKNTLYLQMNSLRAEDTAVYYCVTPPGPFKAHYNGAKYWGKGTLVTVSS
VL: QSALTQPPSVSGSPGQSVTISCTGTSSDIGSYNYVSWYQQLPGKAPKLLIYEVNKRSSGVPDRFSGSKSGNTASLTISGLQAEDEADYYCASYRLYADYVFGGGTQLTVL
notes: Germlined variant of 166G8
In the case of B1, the koff in [1] amounted to 0.000529 s⁻¹; in [2], 0.00584 s⁻¹.

B2: 166G8 mAb (antibody, IgG1, V domains shown)
VH: QVQLVESGGGLVQPGDSLRLSCAASGFTFGSYFMSWVRQAPGKGPEWVSGIHISGGITYYLDSVKGRFTISRDNAKNTLYLQMNNLKPEDTAVYYCVTPPGPFKAHYNGMKYWGKGTLVTVSS
VL: NFMLTQPPSVSGTLGKTVTISCTGTSRDIGDYNYVSWYQQLPGLAPKLLIYKVNTRSSGTPDRFSGSKSGNTASLTISGLQSEDEADYYCASYRLYADYVFGGGTHLTVL
notes: VH family 5; produced as IgG1 with human constant domains
Turning to B2, in assay [3], the Kd turned out to be 0.022 nM, the koff amounted to 0.0002 s⁻¹ and the kon stood at 9.2e+06 M⁻¹ s⁻¹. Besides, the binding result in [4] is reported as “no binding”.

B3: 280.346.TSY (benchmark humanised IL-22R antibody of WO2011/061119) (antibody, V domains shown)
VH: EVQLVESGGGLVQPGGSLRLSCAASGYSITAEYMNWVRQAPGKGLEWIGEINPSTGTTTYNQKFKGRFTISVDQSKNTAYLQMNSLRAEDTAVYYCARFDAYFDYWGQGTLVTVSS
VL: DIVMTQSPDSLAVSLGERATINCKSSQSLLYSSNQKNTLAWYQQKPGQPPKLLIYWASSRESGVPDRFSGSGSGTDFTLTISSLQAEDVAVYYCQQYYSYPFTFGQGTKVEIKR
Take B3: in [3], the Kd stood at 0.24 nM, the koff came out at 6.4e-05 s⁻¹ and the kon was found to be 270000 M⁻¹ s⁻¹. Besides, in [5], the Kd amounted to 0.69 nM, the koff worked out at 0.00034 s⁻¹ and the kon is 490000 M⁻¹ s⁻¹. In assay [6], the “IC50 blocking IL-22 (nM), BWhIL22R cell line” value came out at 0.69 nM and the “Relative potency to 280.346.TSY (IL-22, BWhIL22R cell line)” value is 1 fold. The “IC50 blocking IL-20 (nM), Baf3hIL22R/IL20Rb cell line” value in [7] was 1.49 nM. For the same molecule, the “EC50 (nM), STAT3-reporter in HEK cells after human IL22, Rhesus ECD” value in assay [8] stood at 0.43 nM. Further, in assay [9], the “EC50 (nM), STAT3-reporter in HEK cells after human IL22, Human ECD” value came to 0.26 nM. Besides, the “EC50 (nM), STAT3-reporter in HEK cells after human IL22, Cyno ECD” value in assay [10] was 0.16 nM.

B4: 170B2 mAb (antibody, V domains shown)
VH: EVQLVESGGGLVQPGGSLRLSCAASGFTFSSSWMYWVRQAPGKGLEFVSVINTRSGITHYVESVKGRFTISTDNAKNTLFLQMNSLKSEDTAVYYCATRIQGLIDYWGQGTQVTVSS
VL: DIVMTQSPSSLSVSLGDRVTITCQASQSIGSVNALAWYQQKPGQSLKLLIHGASRLQTGVPSRFSGSGSGTSFTLAISGVEAEDLATYYCLQDYAWPLTFGQGTKVELK
In the case of B4, in [3], the Kd is 0.12 nM, the koff was 9.3e-05 s⁻¹ and the kon turned out to be 760000 M⁻¹ s⁻¹.

B5: 157A2 Fab (Fab, V domains shown)
VH: QVQLVESGGGLVQPGGSLRLSCAASGFTFSSYDMSWVRQAPGKGLEWVSSIYNDGSNTAYSDSVKGRFTISRDNAKNTLYLQMNSLKSEDTAVYYCAKVGFSGTYYSESWGQGTQVTVSS
VL: NFMLTQPSAVSVSLGQTAKITCQGGYYAHWYQQKPGQAPVLVIYGNNNRPSGIPERFSGSSSGNTATLTISGAQAEDEAEYYCQSGSSSANAVFGGGTHLTVL
notes: VH family 4; purified llama Fab
As for B5, the koff in assay [11] was found to be 0.0037 s⁻¹. Further, the binding result in [12] was “no binding”.

B6: 230C9 Fab (Fab, V domains shown)
VH: QVQLVESGGGLVQPGGSLRLSCAASGFTFSSYDMNWVRQAPGKGLEWVSSIYNDASNTAYSDSVKGRFTISRDNSKNTLYLQMNSLRAEDTAVYYCAKVGFSGTYYSESWGQGTLVTVSS
VL: SYELTQPSSVSVALGQTARITCQGGYYAHWYQQKPGQAPVLVIYGQNNRPSGIPERFSGSGAGNTATLTISRAQAEDEADYYCQSGSSSSNAVFGGGTKLTVL
notes: Germlined variant of 218A7
Consider B6, for which the koff was found to be 0.000352 s⁻¹ in [1] and 0.000436 s⁻¹ in assay [2].

B7: 218A7 Fab (Fab, V domains shown)
VH: QVQLVESGGGLVQPGGSLRLSCAASGFTFSSYDMSWVRQAPGKGLEWVSSIYNDGSNTAYSDSVKGRFTISRDNAKNTLYLQMNSLKSEDTAVYYCAKVGFSGTYYSESWGQGTQVTVSS
VL: LPVLTQPSAVSVSLGQTARITCQGGYYAHWYQQKPGQAPVLVIYGQNNRPSGIPERFSGSGAGNTATLTISGAQAEDEAEYYCQSGSSSANAVFGGGTKLTVL
notes: Light chain shuffled variant of 157A2
Turning to B7, the koff in [1] stood at 0.00081 s⁻¹; in [2] it was 0.00097 s⁻¹.

B8: 157A2 mAb (antibody, IgG1, V domains shown)
VH: QVQLVESGGGLVQPGGSLRLSCAASGFTFSSYDMSWVRQAPGKGLEWVSSIYNDGSNTAYSDSVKGRFTISRDNAKNTLYLQMNSLKSEDTAVYYCAKVGFSGTYYSESWGQGTQVTVSS
VL: NFMLTQPSAVSVSLGQTAKITCQGGYYAHWYQQKPGQAPVLVIYGNNNRPSGIPERFSGSSSGNTATLTISGAQAEDEAEYYCQSGSSSANAVFGGGTHLTVL
notes: VH family 4; produced as IgG1 with human constant domains
Turning to B8, in [3], the Kd is 2.8 nM, the koff came out at 0.0011 s⁻¹ and the kon was determined as 390000 M⁻¹ s⁻¹. Besides, the binding result in assay [4] is “no binding”.
